Data on three molecules can be found in paper PMC9150817.

Where two headings read alike, the source gives them in different places.

For data set [1], the target named is T1, Hfq wild type (recombinant, full-length, non-tagged) (Escherichia coli, UniProt P0A6X3 1-102). As to the kind of experiment: 2D-PAGE/immunoblot of reconstituted complex.
In data set [2] the target is T1, Hfq wild type (recombinant, …). As to the kind of experiment: 2D-PAGE/immunoblot of reconstituted complex. The source holds these as a separate data set.

T1 sequence (P0A6X3 whole entry): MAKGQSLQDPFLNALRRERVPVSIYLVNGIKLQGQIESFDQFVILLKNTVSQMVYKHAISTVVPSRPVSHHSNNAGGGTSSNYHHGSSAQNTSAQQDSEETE

B1: (rA)5 (ssRNA)
RNA: AAAAA
Turning to B1, the binding result in data set [1] was “binds”.

B2: (rA)20 (ssRNA)
RNA: AAAAAAAAAAAAAAAAAAAA
For the molecule B2, in data set [2], the binding result was “binds”.

B3: (U)20 (ssRNA)
RNA: UUUUUUUUUUUUUUUUUUUU
For the molecule B3, in data set [2], the binding result is reported as “binds”.
